To fix the notation:
T1: monomeric soluble human CD200R extracellular domain (human, UniProt Q8TD46 29-265)
T1 construct: extracellular domain; also called hCD200R; monomeric CD200R protein
T1 sequence (looked up): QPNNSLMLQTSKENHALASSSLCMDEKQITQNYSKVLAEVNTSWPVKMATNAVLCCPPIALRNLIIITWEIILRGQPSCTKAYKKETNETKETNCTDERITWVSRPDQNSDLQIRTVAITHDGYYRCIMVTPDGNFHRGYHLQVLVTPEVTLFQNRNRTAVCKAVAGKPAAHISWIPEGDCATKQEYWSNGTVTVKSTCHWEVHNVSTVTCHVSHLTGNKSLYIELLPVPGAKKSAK

T2: soluble cynomolgus macaque CD200R1 extracellular domain (cynomolgus macaque, UniProt G7NZT0 29-266)
T2 construct: extracellular domain; also called Cynomolgus CD200R
T2 sequence: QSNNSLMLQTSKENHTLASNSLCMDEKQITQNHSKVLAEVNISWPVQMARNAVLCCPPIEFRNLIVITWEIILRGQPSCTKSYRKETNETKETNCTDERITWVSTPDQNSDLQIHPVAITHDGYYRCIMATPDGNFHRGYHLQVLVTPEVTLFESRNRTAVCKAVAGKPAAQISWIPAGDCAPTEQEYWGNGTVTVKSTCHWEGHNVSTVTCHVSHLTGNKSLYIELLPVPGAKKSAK

T3: extracellular domain of cyno CD200R (SinoBiological 11232-C08H, Met1-Leu267) (cynomolgus, UniProt G7NZT0 25-268)
T3 construct: range 1-267; Bought protein
T3 sequence: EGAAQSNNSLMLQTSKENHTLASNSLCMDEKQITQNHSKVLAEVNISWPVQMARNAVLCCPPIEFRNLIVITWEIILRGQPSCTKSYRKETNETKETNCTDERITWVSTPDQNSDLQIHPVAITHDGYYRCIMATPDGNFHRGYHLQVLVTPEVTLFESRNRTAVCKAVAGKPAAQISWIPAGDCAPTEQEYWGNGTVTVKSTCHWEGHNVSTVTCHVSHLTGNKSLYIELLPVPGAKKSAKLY

B1: hu2131_v8 (antibody, human IgG1, V domains shown)
VH: QVQLVQSGAEVKKPGASVKLSCKASGHTFTSYWMHWVKQAPGQGLEWIGNIYPGSGSINYDEKFQGRATLTVDTSTRTAYMELSSLRSEDTAVYYCLTMTGTSWGRGTLVTVSS
VL: DVQMTQSPSSLSVSVGDRVTITCQASQGTPINLHWFQQKPGKAPKLLISGASNLEDGVPSRFSGSRYGTDFTFTISSLQPEDIATYFCLQFTYIPWTFGQGTKLEIK
notes: Expressed as human IgG1 with P238D Fc mutation
B2: hu2131_v13 (antibody, human IgG1, V domains shown)
VH: B1 VH with L20V, K38R, A68V, L70M, R77S
VL: B1 VL
notes: as for B1
B3: hu2131_v7 (antibody, human IgG1, V domains shown)
VH: B1 VH
VL: B1 VL with I21M, D70A, F73L
notes: as for B1
B4: hu2131_v16 (antibody, human IgG1, V domains shown)
VH: B1 VH with L20V, K38R, I48M, A68V, L70M, V72A, R77S, A79V
VL: B1 VL with I21M, D70A, F73L, P80D
notes: as for B1
B5: hu2131_v15 (antibody, human IgG1, V domains shown)
VH: B1 VH with L20V, K38R, A68V, L70M, R77S
VL: B1 VL with V2I, R66G, Y67S, D70E, I83A, F87Y
notes: as for B1
B6: hu2131_v6 (antibody, human IgG1, V domains shown)
VH: B1 VH
VL: B1 VL with I21M, D70A, F73L, P80D
notes: as for B1
B7: hu2131_v3 (antibody, human IgG1, V domains shown)
VH: B1 VH with A9S, V11L, T91S
VL: B1 VL
notes: as for B1
B8: hu2131_v11 (antibody, human IgG1, V domains shown)
VH: B1 VH with L20V, K38R, A68V, L70M, R77S
VL: B1 VL with I21M, D70A, F73L, P80D
notes: as for B1
B9: hu2131_v4 (antibody, human IgG1, V domains shown)
VH: B1 VH with A9S, V11L, T91S
VL: B1 VL with V2I, R66G, Y67S, F87Y
notes: as for B1
B10: hu2131_v2 (antibody, human IgG1, V domains shown)
VH: B1 VH with A9S, V11L, T91S
VL: B1 VL with I21M, D70A, F73L
notes: as for B1
B11: hu2131_v14 (antibody, human IgG1, V domains shown)
VH: B1 VH with L20V, K38R, A68V, L70M, R77S
VL: B1 VL with V2I, R66G, Y67S, F87Y
notes: as for B1
B12: hu2131_v18 (antibody, human IgG1, V domains shown)
VH: B1 VH with L20V, K38R, I48M, A68V, L70M, V72A, R77S, A79V
VL: B1 VL
notes: as for B1
B13: hu2131_v1 (antibody, human IgG1, V domains shown)
VH: B1 VH with A9S, V11L, T91S
VL: B1 VL with I21M, D70A, F73L, P80D
notes: as for B1
B14: hu2131_v10 (antibody, human IgG1, V domains shown)
VH: B1 VH
VL: B1 VL with V2I, R66G, Y67S, D70E, I83A, F87Y
notes: as for B1
B15: hu2131_v19 (antibody, human IgG1, V domains shown)
VH: B1 VH with L20V, K38R, I48M, A68V, L70M, V72A, R77S, A79V
VL: B1 VL with V2I, R66G, Y67S, F87Y
notes: as for B1
B16: hu2131_v17 (antibody, human IgG1, V domains shown)
VH: B1 VH with L20V, K38R, I48M, A68V, L70M, V72A, R77S, A79V
VL: B1 VL with I21M, D70A, F73L
notes: as for B1
B17: hu2131_v5 (antibody, human IgG1, V domains shown)
VH: B1 VH with A9S, V11L, T91S
VL: B1 VL with V2I, R66G, Y67S, D70E, I83A, F87Y
notes: as for B1
B18: hu2131_v9 (antibody, human IgG1, V domains shown)
VH: B1 VH
VL: B1 VL with V2I, R66G, Y67S, F87Y
notes: as for B1
B19: hu2131_v12 (antibody, human IgG1, V domains shown)
VH: B1 VH with L20V, K38R, A68V, L70M, R77S
VL: B1 VL with I21M, D70A, F73L
notes: as for B1
B20: Antibody I-4P (antibody, human IgG4 S228P, kappa, V domains shown)
VH: QVQLVQSGAEVKKPGASVKVSCKASGFSFSSGYYMAWVRQAPGQGLEWMGLIGVGSGSLWYAQKFQGRVTMTRDTSTSTVYMELSSLRSEDTAVYYCARHFALSDPFNLWGQGTLVTVSS
VL: EIVLTQSPDFQSVTPKEKVTITCQASESIDSYLLWYQQKPDQSPKLLIKQASTLASGVPSRFSGSGSGTDFTLTINSLEAEDAATYYCQNYYDISSNDFGGGTKVEIKR
notes: also called AbI-4P; J-4P
B21: anti-CD200R antibody clone 26.1.2 (mIgG1k isotype) (antibody, V domains shown)
VH: EVQLQQSGPELVKPGASVKMSCKASGYTFTSYVMHWVKQKPGQGLEWIGYIHPYNDDIKHNEKFKDKATLTSAKSSSTVYMELSSLTSEDSAVYYCAREEYYGSRFAYWGQGTLVTVSA
VL: DIVLTQSPASLAVSLGQRATISCRASKSVRTSGYSYLHWYQQKPGQPPKLLIYLASNLESGVPARFSGSGSGTDFTLNIHPVEEEDAATYYCQYSGELPFTFGGGTKLEIKR
notes: Murine hybridoma antibody, IgG1 kappa
B22: Antibody hu2131_Q1E hIgG1k P238D (antibody)
heavy: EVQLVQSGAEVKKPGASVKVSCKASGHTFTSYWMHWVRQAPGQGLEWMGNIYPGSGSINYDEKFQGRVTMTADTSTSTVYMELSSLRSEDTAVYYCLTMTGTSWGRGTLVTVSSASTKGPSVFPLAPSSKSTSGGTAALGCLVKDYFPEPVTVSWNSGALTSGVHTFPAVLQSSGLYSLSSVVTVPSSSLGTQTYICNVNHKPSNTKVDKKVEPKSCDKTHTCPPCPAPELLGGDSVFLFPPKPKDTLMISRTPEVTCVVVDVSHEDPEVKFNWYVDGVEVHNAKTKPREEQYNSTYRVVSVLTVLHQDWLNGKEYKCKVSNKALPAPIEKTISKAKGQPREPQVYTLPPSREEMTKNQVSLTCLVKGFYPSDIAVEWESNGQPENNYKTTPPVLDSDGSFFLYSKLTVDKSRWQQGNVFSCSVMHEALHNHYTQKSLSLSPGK
light: DIQMTQSPSSLSVSVGDRVTITCQASQGTPINLHWFQQKPGKAPKLLISGASNLESGVPSRFSGSGSGTEFTFTISSLQPEDAATYYCLQFTYIPWTFGQGTKLEIKRTVAAPSVFIFPPSDEQLKSGTASVVCLLNNFYPREAKVQWKVDNALQSGNSQESVTEQDSKDSTYSLSSTLTLSKADYEKHKVYACEVTHQGLSSPVTKSFNRGEC

By Kd is commonly meant a measure of binding affinity in units of concentration. A word on the koff: it is the first-order rate constant of dissociation. High values mean a short-lived complex, low ones a long-lived complex. What is called kon is a measure of how fast the partners come together. Higher therefore signals fast association.

Positions count from the first letter of the chain named. Numbers in names are those of the source.

For the first experiment, the target named is T1, monomeric soluble human CD200R …. In words: BLI (Octet), antibody on anti-human Fc probes, monomeric CD200R in solution, 25 C, 1:1 global fit. The method, then:
Humanised variant antibodies combining the different heavy and light variable domains described in Example 6 were produced by transient transfection of HEK293 cells. All antibodies were expressed on a human IgGI isotype with a P238D Fc mutation. The unpurified supernatants were analysed by Protein A-HPLC to determine the antibody concentrations, as a measure of expression yield. […] Binding affinity of humanized variants to human CD200R was assessed by bio-layer interferometry on an Octet R4 instrument. Each antibody was captured directly onto anti-human Fc capture probes (Sartorius 18-5060) for 60 sec followed by baseline setting in assay buffer (DPBS, 0.01% Polysorbate-20). Association of monomeric CD200R protein to immobilised antibodies was measured in 4 different protein concentrations (300, 100, 30 and 10 nM in assay buffer) at 25° C., with an association time of 120s and dissociation of 120s in assay buffer only. A reference probe with no antibody immobilised was used for background subtraction. Kinetic rate constants and binding KDs were calculated using Octet Analysis Studio 12 software. Global curve fitting based on all 4 concentrations using a 1:1 model was performed, from which kon and koff were obtained to calculate KD using the relationship KD=koff/kon.
(In general: In BLI a coated tip is dipped into the sample, and binding shifts an interference pattern.)
B1 registered an equilibrium dissociation constant (Kd) of 3.18 pM. Regarding B2, the Kd was 2.94 pM. Still for that read-out and setting: as for B3, the figure is 3.06 pM; as for B4, 1.03 pM. The same measure, in the same setting: for B5 the value was 3.18 pM; for B6, 3.96 pM; for B7, 3.88 pM. Take B8: the equilibrium dissociation constant (Kd) worked out at 2.45 pM. Consider B9, for which the Kd turned out to be 2.74 pM. In turn, B10 showed a Kd of 3.84 pM. Regarding B11, the dissociation constant (Kd) is 2.9 pM.

Consider B12, for which the dissociation constant Kd is 34.4 pM. Molecule B13 registered an equilibrium dissociation constant (Kd) of 3.63 pM. In turn, B14 displayed a Kd of 4.43 pM. B15 had a Kd of 4.23 pM. On to B16, for which the affinity, expressed as Kd, was 183 pM. The same measure, in the same setting: for B17 the value was 5 pM. B18: binding was characterised by a dissociation constant (Kd) of 3.07 pM. Still for that read-out and setting: for B19 the value was 4.14 pM; for B20, 2160 pM.

Another experiment deals with T2, soluble cynomolgus macaque CD200R1 …. In words: SPR, captured antibody, soluble monomeric receptor injected, single cycle kinetics, 37 C. The protocol:
(§1) The binding affinity and kinetics of the CD200R antibodies of the present disclosure to human or cynomolgus CD200R were determined by surface plasmon resonance (SPR) using the Biacore T200 (GE Healthcare). Mouse antibody capture kit (GE Healthcare) was used to coat a Series S CM5 Sensor Chip (GE Healthcare) with polyclonal anti-mouse IgG.
(§2) Anti-CD200R antibody was captured onto the biosensor surface and a negative control antibody (clone Mopc21; Biolegend) captured in the reference channel. Various concentrations of monomeric soluble human CD200R extracellular domain, soluble cynomolgus macaque CD200R1 extracellular domain or soluble cynomolgus macaque CD200RLa (a highly homologous activating receptor) were injected over the immobilized antibodies in the buffer 10 mM Hepes, 150 mM NaCl, 0.005% v/v Surfactant P20, pH 7.4 (HBS-P) at 37° C., in a single cycle kinetics analysis. Association and dissociation rates were fitted using BiaEvaluation Software (GE Healthcare) after reference and blank subtractions, and dissociation constants were calculated (Table 2).
On the technique in general: Surface plasmon resonance follows binding to a sensor surface in real time, without labels.
Regarding B21, the dissociation constant Kd came out at 60000 pM.

The target in the next experiment is T1, monomeric soluble human CD200R …. Described as above. The protocol:
as §1, §2
In the case of B21, the Kd came to 700 pM.

In a further experiment the target is T3, extracellular domain of cyno CD200R …. In words: SPR (Biacore), antibody captured by anti-human Fc, CD200R extracellular domain injected, single cycle kinetics, 25 C. The method, then: This example investigates in vitro CD200R binding of anti-CD200R antibodies by surface plasmon resonance. Surface plasmon resonance binding experiments with purified anti-CD200R antibody (expressed on a hIgG1 isotype with a P238D Fc mutation) were performed using the Biacore T200 and 8K+instruments. Anti-human Fc antibody (Life Technologies H10500) was amine-coupled to a C1 sensor chip using standard amine-coupling chemistry. Residual activated carboxyls were blocked with ethanolamine. Antibodies with a human Fc were then captured on these surfaces.
To assess the binding of hu2131_v20_D56S antibody and variants (antibody hu213l_Q1E and antibody hu2131_Q1E_M99G) to the extracellular domains of human CD200R (Met29-Leu243) and cyno CD200R (SinoBiological 11232-C08H, Metl-Leu267), 10-30 RUs of antibody were captured. CD200R proteins were diluted into running buffer (10 mM HEPES, 150 mM NaCl, 3 mM EDTA, 0.01% Polysorbate 20, pH 7.4 with 0.1 mg/mL BSA) (full-length antibody sequences are disclosed in Table 10). Five three-fold serial dilutions were performed for each CD200R, with highest concentration being 100 nM. Samples were injected using a single cycle kinetics scheme (Karlsson Anal Biochem et al 2006). Data were analyzed using Biacore Insight Evaluation Software and fit to a simple kinetic model, from which kon and koff were obtained to calculate KD using the relationship KD=koff/kon. Experiments were run at 25° C.
In turn, B22 yielded a Kd not above 39.2 pM, an off-rate constant (koff) not above 1e-05 s⁻¹ and an on-rate constant (kon) of 255000 M⁻¹ s⁻¹.

The record behind these values is US20230416361A1 (MIROBIO, published 2023).
